According to article PMC4873976, “Structural basis for haem piracy from host haemopexin by Haemophilus influenzae” (Nature Communications, 2016):
Changes are numbered by the printed parent chain.

Tests used:
[1] = biological target: cysteine-less variant of HxuA^DEL (Haemophilus influenzae) (UniProt P44602); experiment: ITC; haemopexin or its fragments (~100 μM) in the syringe, HxuA (~10 μM) in the cell; 20 mM Na-phosphate pH 7.0, 25 °C; single-site model; apparent Ka
[2] = biological target: T1, HxuA (cysteine-less variant, Cys855 and Cys861 replaced by serines; referred to as HxuA throughout) (Haemophilus influenzae, UniProt P44602 22-905, Cys855 replaced by serine | Cys861 replaced by serine); experiment: ITC; haemopexin or its fragment (~100 uM) in the syringe, HxuA or mutant (~10 uM) in the cell; 25 °C; 20 mM Na-phosphate pH 7.0; single-site model; apparent Ka; mean of one to three experiments; details: both partners purified
T1 construct: also called WT; HxuAWT; source: E. coli BL21 with a pBAD24 derivative harbouring the hxuCBA operon; purified from the culture supernatant (ammonium sulfate, SEC, monoQ)
T1 sequence: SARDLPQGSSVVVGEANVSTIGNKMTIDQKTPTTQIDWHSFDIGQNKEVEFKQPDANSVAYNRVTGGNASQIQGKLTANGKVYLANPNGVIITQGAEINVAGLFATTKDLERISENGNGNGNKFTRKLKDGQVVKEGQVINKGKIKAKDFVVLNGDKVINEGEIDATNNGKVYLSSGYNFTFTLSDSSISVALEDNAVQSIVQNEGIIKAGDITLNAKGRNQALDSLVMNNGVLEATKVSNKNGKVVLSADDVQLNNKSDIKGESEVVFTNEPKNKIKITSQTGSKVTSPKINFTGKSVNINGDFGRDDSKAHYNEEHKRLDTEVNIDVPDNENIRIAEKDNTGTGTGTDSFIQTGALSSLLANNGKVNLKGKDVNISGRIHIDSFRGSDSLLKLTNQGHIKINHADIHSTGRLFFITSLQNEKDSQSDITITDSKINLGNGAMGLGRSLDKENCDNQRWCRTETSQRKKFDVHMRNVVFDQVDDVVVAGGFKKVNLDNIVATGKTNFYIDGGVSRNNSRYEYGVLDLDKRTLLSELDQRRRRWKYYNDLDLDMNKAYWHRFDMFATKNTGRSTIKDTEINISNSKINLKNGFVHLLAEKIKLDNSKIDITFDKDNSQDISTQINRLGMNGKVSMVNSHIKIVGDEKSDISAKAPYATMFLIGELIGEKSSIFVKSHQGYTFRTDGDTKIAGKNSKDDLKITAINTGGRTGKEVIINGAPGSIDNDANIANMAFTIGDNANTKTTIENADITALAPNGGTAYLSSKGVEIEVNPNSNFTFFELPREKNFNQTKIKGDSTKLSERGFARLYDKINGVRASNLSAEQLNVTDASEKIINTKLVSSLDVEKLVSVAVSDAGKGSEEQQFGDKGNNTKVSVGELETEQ

[3] = biological target: T2, HxuA, cysteine-less variant (cysteines 855 and 861 replaced by serines; referred to as HxuA throughout) (Haemophilus influenzae, UniProt P44602 22-905, cysteine at position 855 replaced by serine | cysteine at position 861 replaced …); experiment: ITC; haemopexin or its fragments (~100 μM) in the syringe, HxuA (~10 μM) in the cell; 20 mM Na-phosphate pH 7.0, 25 °C; single-site model; apparent Ka; details: both partners purified
T2 construct: HxuA, haem-haemopexin utilisation protein A (TpsA cargo protein) of Haemophilus influenzae, called full-length, 884 residues, Ser1 to Gln884; Measured mass 96,467.6094 (theoretical 96,469.6926); also called HxuAdm; dm variant; source: E. coli BL21, pBAD24 derivative with the hxuCBA operon; purified from the culture supernatant (ammonium sulfate, SEC, monoQ)
T2 sequence: T1 sequence

[4] = biological target: T3, HxuA^Asp726Ala, cysteine-less (dm) variant (Haemophilus influenzae, UniProt P44602 22-905, Asp726Ala | Cys855 replaced by serine | Cys861 replaced by serine); experiment: ITC; haemopexin or its fragment (~100 uM) in the syringe, HxuA or mutant (~10 uM) in the cell; 25 °C; 20 mM Na-phosphate pH 7.0; single-site model; apparent Ka; mean of one to three experiments; details: both partners purified
T3 construct: source: E. coli BL21 with a pBAD24 derivative harbouring the hxuCBA operon; purified from the culture supernatant (same protocol as HxuA)
T3 sequence: T1 sequence with D726A

[5] = biological target: T4, HxuA^DEL (M loop deletion), cysteine-less (dm) variant (Haemophilus influenzae, UniProt P44602 22-905, additional Pro codon replacing the initial 712-728 sequence | Cys855 replaced …); experiment: as above; details: both partners purified
T4 construct: source: E. coli BL21 with a pBAD24 derivative harbouring the hxuCBA operon; purified from the culture supernatant (same protocol as HxuA)
T4 sequence: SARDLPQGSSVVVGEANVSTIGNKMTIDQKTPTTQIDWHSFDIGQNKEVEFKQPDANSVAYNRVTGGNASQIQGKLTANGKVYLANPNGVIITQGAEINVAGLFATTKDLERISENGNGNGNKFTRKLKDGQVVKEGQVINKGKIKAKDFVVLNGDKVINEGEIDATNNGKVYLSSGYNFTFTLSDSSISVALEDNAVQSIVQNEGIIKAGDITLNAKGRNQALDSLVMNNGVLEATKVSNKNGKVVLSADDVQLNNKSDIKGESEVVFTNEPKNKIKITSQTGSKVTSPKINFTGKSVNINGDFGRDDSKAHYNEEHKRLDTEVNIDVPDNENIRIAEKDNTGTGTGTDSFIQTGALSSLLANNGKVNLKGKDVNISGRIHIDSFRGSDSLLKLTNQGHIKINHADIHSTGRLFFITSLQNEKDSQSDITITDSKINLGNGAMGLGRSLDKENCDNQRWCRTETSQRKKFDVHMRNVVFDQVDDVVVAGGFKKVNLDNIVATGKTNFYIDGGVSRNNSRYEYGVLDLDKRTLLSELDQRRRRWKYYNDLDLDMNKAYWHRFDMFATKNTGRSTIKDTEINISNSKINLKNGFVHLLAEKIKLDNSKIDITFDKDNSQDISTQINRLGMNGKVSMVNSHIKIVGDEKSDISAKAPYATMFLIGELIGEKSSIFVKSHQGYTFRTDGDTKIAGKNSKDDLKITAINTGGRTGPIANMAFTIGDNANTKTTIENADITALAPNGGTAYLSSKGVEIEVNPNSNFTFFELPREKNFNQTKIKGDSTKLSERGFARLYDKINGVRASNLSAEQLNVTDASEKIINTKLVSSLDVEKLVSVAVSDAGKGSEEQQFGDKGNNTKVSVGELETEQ

[6] = biological target: T5, cysteine-less variant of HxuA^Asp726Ala (Haemophilus influenzae, UniProt P44602 22-905, Asp726Ala | cysteine at position 855 replaced by serine | cysteine at position …); experiment: ITC; haemopexin or its fragments (~100 μM) in the syringe, HxuA (~10 μM) in the cell; 20 mM Na-phosphate pH 7.0, 25 °C; single-site model; apparent Ka; details: both partners purified
T5 construct: HxuA of Haemophilus influenzae, as m1 with Asp726Ala; also called dm variant of HxuA^Asp726Ala; source: E. coli, purified from the supernatant (same protocol as HxuA)
T5 sequence: T1 sequence with D726A

Molecule: rabbit haem-haemopexin (from UniProt P20058 26-460) (natural protein)
- Ka [1]: 1.7e+08 M⁻¹
- dH [1]: -13 kcal/mol
- stoichiometry N [1]: 1

B1: N-terminal domain of rabbit haemopexin (domain or fragment)
chain: VPLTSAHGNVTEGESGTKPEADVIEQCSDGWSFDATTLDDNGTMLFFKDEFVWKSHRGIRELISERWKNFIGPVDAAFRHGHTSVYLIKGDKVWVYTSEKNEKVYPKSLQDEFPGIPFPLDAAVECHRGECQDEGILFFQGNRKWFWDLTTGTKKERSWPAVGNCTSALRWLGRYYCFQGNQFLRFNPVSGEVPPGYPLDVRDYFLSCPGRGHR
notes: haemopexin, rabbit, N-terminal fragment; The results call the domain residues 1-208; the fragment itself ends at Arg214; also called NtHpx; NterHpx; source: trypsin digestion of haemopexin purified from rabbit serum; purified (mono S, SEC)
- Ka [2]: 7.6e+07 M⁻¹
- stoichiometry N [2]: 0.88

B2: N-terminal domain of rabbit haemopexin (domain or fragment)
chain: B1 chain
notes: haemopexin, rabbit, N-terminal tryptic fragment: cleaved in the linker after Arg 214; also called NtHpx; NterHpx; source: trypsin digestion of haemopexin purified from rabbit serum; purified (mono S, SEC)
- dH [3]: -48.5 kcal/mol
- stoichiometry N [3]: ~1

B3: rabbit haemopexin (haem-free) (natural protein)
chain: VPLTSAHGNVTEGESGTKPEADVIEQCSDGWSFDATTLDDNGTMLFFKDEFVWKSHRGIRELISERWKNFIGPVDAAFRHGHTSVYLIKGDKVWVYTSEKNEKVYPKSLQDEFPGIPFPLDAAVECHRGECQDEGILFFQGNRKWFWDLTTGTKKERSWPAVGNCTSALRWLGRYYCFQGNQFLRFNPVSGEVPPGYPLDVRDYFLSCPGRGHRSSHRNSTQHGHESTRCDPDLVLSAMVSDNHGATYVFSGSHYWRLDTNRDGWHSWPIAHQWPQGPSTVDAAFSWEDKLYLIQDTKVYVFLTKGGYTLVNGYPKRLEKELGSPPVISLEAVDAAFVCPGSSRLHIMAGRRLWWLDLKSGAQATWTELPWPHEKVDGALCMEKPLGPNSCSTSGPNLYLIHGPNLYCYRHVDKLNAAKNLPQPQRVSRLLGCTH
notes: Glycoprotein from serum; also called Hpx; hemopexin; source: purified from rabbit serum (Biosera)
- Ka [4]: > 1e+09 M⁻¹
- stoichiometry N [4]: 0.68
- Ka [5]: > 1e+09 M⁻¹
- stoichiometry N [5]: 1.07
- Ka [2]: > 1e+09 M⁻¹
- stoichiometry N [2]: 0.8

B4: rabbit haem-haemopexin (natural protein)
chain: B3 chain
modifications: haem bound
notes: Same chain as Dm4, with haem; also called He-Hpx; HeHpx; source: purified from rabbit serum (Biosera), haem-loaded
- stoichiometry N [4]: 1.06
- stoichiometry N [5]: 0.89
- stoichiometry N [2]: 0.96

B5: rabbit haemopexin (haem-free) (natural protein)
chain: B3 chain
notes: haemopexin, rabbit, serum glycoprotein, called full-length; two MMP domains (residues 1-208 and 228-435) joined by a linker; Glycoprotein from serum; also called Hpx; full-length haemopexin; source: purified from rabbit serum (Biosera): perchloric acid, PEG 3400, S-sepharose, mono Q, SEC
- dH [3]: -52.7 kcal/mol

B6: rabbit haem-haemopexin (natural protein)
chain: B3 chain
notes: also called He-Hpx; source: purified from rabbit serum (Biosera), haem-loaded
- Ka [6]: 2.9e+06 M⁻¹
- dH [6]: -12.8 kcal/mol
- Ka [3]: > 1e+09 M⁻¹
- dH [3]: -39.8 kcal/mol
